# Experimental data published in patent publication US8828923B2, “Insulin derivatives” (Novo Nordisk A/S, priority 2003, dated 2014).
# What was measured:
# [1] = Hydrophobicity (hydrophobic index) k′rel relative to human insulin by isocratic RP-HPLC; type: physicochemical; conditions: LiChrosorb RP18, isocratic elution, 40° C., pH 7.3 phosphate/acetonitrile
# Procedure: The elution was monitored by following the UV absorption of the eluate at 214 nm. Void time, t0, was found by injecting 0.1 mM sodium nitrate.
# [2] = molecular target: human insulin receptor (Homo sapiens, UniProt P06213); assay: Assay (I) insulin receptor binding, SPA antibody capture assay; conditions: recombinant human insulin receptor - exon 11, A14 Tyr[125I]-human insulin tracer
# Chain of human insulin receptor (P06213 28-746 isoform P06213-2 limits assumed): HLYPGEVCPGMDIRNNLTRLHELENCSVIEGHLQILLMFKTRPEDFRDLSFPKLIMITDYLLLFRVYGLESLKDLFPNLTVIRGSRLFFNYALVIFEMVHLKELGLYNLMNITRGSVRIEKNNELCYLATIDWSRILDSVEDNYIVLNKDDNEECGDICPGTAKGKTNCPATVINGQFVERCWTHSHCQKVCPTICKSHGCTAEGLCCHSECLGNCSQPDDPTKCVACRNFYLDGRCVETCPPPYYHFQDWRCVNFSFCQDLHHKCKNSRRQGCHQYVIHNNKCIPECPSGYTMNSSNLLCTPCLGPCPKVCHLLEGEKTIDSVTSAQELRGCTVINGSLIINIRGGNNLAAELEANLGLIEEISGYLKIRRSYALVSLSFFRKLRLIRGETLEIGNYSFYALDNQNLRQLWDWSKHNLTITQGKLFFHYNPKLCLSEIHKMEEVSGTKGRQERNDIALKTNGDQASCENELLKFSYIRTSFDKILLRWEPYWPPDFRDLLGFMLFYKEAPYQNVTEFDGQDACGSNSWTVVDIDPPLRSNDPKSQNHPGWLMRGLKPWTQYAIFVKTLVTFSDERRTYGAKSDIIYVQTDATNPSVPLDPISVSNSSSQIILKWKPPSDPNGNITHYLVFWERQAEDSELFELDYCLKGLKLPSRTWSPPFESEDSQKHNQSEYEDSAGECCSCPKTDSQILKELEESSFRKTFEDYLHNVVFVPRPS
# Chain of human insulin receptor (P06213 763-1382 partner limits assumed): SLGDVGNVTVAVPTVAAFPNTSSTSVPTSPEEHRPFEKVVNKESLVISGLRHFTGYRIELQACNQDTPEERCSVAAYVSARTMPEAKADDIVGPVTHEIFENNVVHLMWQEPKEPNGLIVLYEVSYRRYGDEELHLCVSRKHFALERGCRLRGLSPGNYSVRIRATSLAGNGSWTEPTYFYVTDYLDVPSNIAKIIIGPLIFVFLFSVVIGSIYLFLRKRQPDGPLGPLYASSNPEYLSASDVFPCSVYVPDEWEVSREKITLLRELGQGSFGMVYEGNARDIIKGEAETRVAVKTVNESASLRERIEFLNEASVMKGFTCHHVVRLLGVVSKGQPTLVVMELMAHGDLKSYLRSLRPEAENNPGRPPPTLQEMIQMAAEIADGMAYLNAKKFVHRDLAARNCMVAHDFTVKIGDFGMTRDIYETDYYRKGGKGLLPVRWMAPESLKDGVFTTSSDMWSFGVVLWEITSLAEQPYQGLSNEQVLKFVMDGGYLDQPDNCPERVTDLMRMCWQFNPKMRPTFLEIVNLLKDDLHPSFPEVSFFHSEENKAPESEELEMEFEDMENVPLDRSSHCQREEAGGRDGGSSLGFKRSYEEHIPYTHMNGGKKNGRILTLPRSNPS
# Procedure: SPA-PVT antibody-binding beads, anti-mouse reagent (Amersham Biosciences, Cat No. PRNQ0017) were mixed with 25 ml of binding buffer (100 mM HEPES pH 7.8; 100 mM sodium chloride, 10 mM MgSO4, 0.025% Tween-20). […] A total of 100 μl was then added and a dilution series is made from appropriate samples. To the dilution series was then added 100 μl of reagent mix and the samples were incubated for 16 hours while gently shaken. The phases were the then separated by centrifugation for 1 min and the plates counted in a Topcounter. The binding data were fitted using the nonlinear regression algorithm in the GraphPad Prism 2.01 (GraphPad Software, San Diego, Calif.).
# Specific antibodies (F12) were produced by monoclonal technique: RBF mice were immunized by injecting 50 μg of purified mIR in FCA subcutaneously followed by two injections with 20 μg of mIR in FIA. Highresponder mice were boosted intravenously with 25 μg of mIR and the spleens were harvested after 3 days. Spleen cells were fused with the myeloma Fox cell line (Kohler, G & Milstein C. (1976), European J. Immunology, 6:511-19; Taggart RT et al (1983), Science 219:1228-30). Supernatants were screened for antibody production in a mIR specific ELISA. Positive wells were cloned and tested in Western blotting.
# [3] = tested on: Sprague Dawley male rats; assay: Assay (II) potency relative to human insulin, euglycaemic clamp with i.v. infusion; type: in vivo; conditions: rat clamp, i.v. infusion for 300 min, 15 and 20 pmol/min/kg
# Source text: Sprague Dawley male rats weighing 238-383 g on the experimental day were used for the clamp experiment. The rats had free access to feed under controlled ambient conditions and were fasted overnight (from 3 pm) prior to the clamp experiment.
# The rats were acclimatized in the animal facilities for at least 1 week prior to the surgical procedure. Approximately 1 week prior to the clamp experiment Tygon catheters were inserted under halothane anaesthesia into the jugular vein (for infusion) and the carotid artery (for blood sampling) and exteriorised and fixed on the back of the neck. The rats were given Streptocilin vet. (Boehringer Ingelheim; 0.15 ml/rat, i.m.) post-surgically and placed in an animal care unit (25° C.) during the recovery period. In order to obtain analgesia, Anorphin (0.06 mg/rat, s.c.) was administered during anaesthesia and Rimadyl (1.5 mg/kg, s.c.) was administered after full recovery from the anaesthesia (2-3 h) and again once daily for 2 days.
# The clamp technique employed was adapted from (1). At 7 am on the experimental day overnight fasted (from 3 pm the previous day) rats were weighed and connected to the sampling syringes and infusion system (Harvard 22 Basic pumps, Harvard, and Perfectum Hypodermic glass syringe, Aldrich) and then placed into individual clamp cages where they rested for ca. 45 min before start of experiment. The rats were able to move freely on their usual bedding during the entire experiment and had free access to drinking water. […] Plasma glucose levels were measured at 10 min intervals throughout and infusion of 20% aqueous glucose was adjusted accordingly in order to maintain euglyceamia. Samples of re-suspended erythrocytes were pooled from each rat and returned in about ½ ml volumes via the carotid catheter.
# Rats were killed at the end of experiment using a pentobarbital overdose.
# Test compounds and doses: Insulins to be tested were diluted from a stock solution containing 97 μM of the insulin derivative in 5 mM phosphate pH 7.7. The final concentration in the solution ready for use was 0.45 μM of the insulin derivative, 5 mM of phosphate, 100 mM of sodium chloride, 0.007% of polysorbate 20. The pH was 7.7 and the i.v. infusion rate was 15 and 20 pmol-min^−1−kg^−1.
# Both stock solutions were stored at −20 C. and thawed overnight at 4° C. before use. The solutions were gently turned upside down several times 15 min before they were transferred to the infusion syringes.
Substance,k′rel (hydrophobic index relative to human insulin) [1],Receptor binding (% of human insulin) [2],Potency relative to human insulin [3] [%]
N^εB29—(N^α-(HOOC(CH2)14CO)-γ-Glu) des(B30) Human Insulin,0.87,26 % of human insulin,>50
N^εB29—(N^α-(HOOC(CH2)16CO)-γ-Glu—N-(γ-Glu)) des(B30) Human Insulin,1.17,11 % of human insulin,>50
N^εB29—(N—(Gly-OC(CH2)13CO-γ-L-Glu) des(B30) Human Insulin,0.58,22 % of human insulin,
N^εB29—(N—(Gly-OC(CH2)14CO-γ-L-Glu) des(B30) Human Insulin,0.88,32 % of human insulin,>50
N^εB29—(N—(Gly-OC(CH2)16CO-γ-L-Glu) des(B30) Human Insulin,1.57,9.1 % of human insulin,
N^εB29—(N—(HOOC(CH2)14CO-ε-L-LysCO—) des(B30) Human Insulin,0.90,5.7 % of human insulin,
N^εB29—(N—(L-Asp-OC(CH2)16CO)-γ-L-Glu) des(B30) Human Insulin,0.70,13 % of human insulin,
N^εB29—(N—(L-Glu-OC(CH2)14CO-γ-L-Glu) des(B30) Human Insulin,0.33,13 % of human insulin,
N^εB29—(N—(L-Glu-OC(CH2)14CO—) des(B30) Human Insulin,1.17,9.4 % of human insulin,
N^εB29—(N—(L-Sar-OC(CH2)13CO-γ-L-Glu) des(B30) Human Insulin,0.63,20 % of human insulin,
N^εB29—(N—HOOC(CH2)8CO-γ-Glu) des(B30) human insulin,0.45,,
N^εB29—(N—HOOC(CH2)13CO-β-L-Asp) des(B30) Human Insulin,0.47,11 % of human insulin,
N^εB29—(N—HOOC(CH2)13CO-β-L-Glu) des(B30) Human Insulin,0.54,15 % of human insulin,
N^εB29—(N—HOOC(CH2)14CO-β-D-Asp) des(B30) Human Insulin,,37 % of human insulin,
N^εB29—(N—HOOC(CH2)14CO-β-L-Asp) des(B30) Human Insulin,0.69,16 % of human insulin,>50
N^εB29—(N—HOOC(CH2)15CO-β-L-Asp) des(B30) Human Insulin,1.09,5.4 % of human insulin,
N^εB29—(N—HOOC(CH2)15CO-γ-L-Glu) des(B30) Human Insulin,1.13,4 % of human insulin,
N^εB29—(N—HOOC(CH2)16CO-α-Glu)-N-(AspAsp) des(B30) human insulin,1.07,,
N^εB29—(N—HOOC(CH2)16CO-α-L-Asp) des(B30) Human Insulin,1.49,13 % of human insulin,
N^εB29—(N—HOOC(CH2)16CO-α-L-Asp)—N-(β-L-Asp) des(B30) Human Insulin,,14 % of human insulin,
N^εB29—(N—HOOC(CH2)16CO-α-L-Glu) des(B30) Human Insulin,1.51,16 % of human insulin,
N^εB29—(N—HOOC(CH2)16CO-α-L-Glu)—N—(β-L-Asp) des(B30) Human Insulin,1.11,11 % of human insulin,
N^εB29—(N—HOOC(CH2)16CO-β-L-Asp) des(B30) Human Insulin,1.54,11 % of human insulin,
N^εB29—(N—HOOC(CH2)16CO-γ-D-Glu) des(B30) Human Insulin,1.4,13 % of human insulin,
N^εB29—(N—HOOC(CH2)16CO-δ-L-Aad) des(B30) Human Insulin,0.84,7 % of human insulin,
N^εB29—[N^α-(HOOC(CH2)11)NHCO(CH2)3CO)-γ-L-Glu] des(B30) Human Insulin,0.42,46 % of human insulin,
N^εB29—[N—(HOOC(CH2)16CO)—N-(carboxymethyl)-β-Ala] des(B30) Human Insulin,1.13,9.4 % of human insulin,
NεB29—(Nα-(HOOC(CH2)16CO)-γ-Glu) des(B30) Human Insulin,1.15,9.2 % of human insulin,>50
